Legend:
HLA-A*02:01 = assay: IEDB peptide-MHC binding, purified MHC/direct/fluorescence; filed as Kd, often an IC50 or EC50 that approximates it; ≥ and ≤ were set here for values at or beyond the usual limits of such assays
HLA-A*02:03 = assay: as above; conditions: source organism: Giardia lamblia ATCC 50803
HLA-A*02:12 = assay: as above; conditions: source organism: Giardia lamblia ATCC 50803
HLA-A*02:19 = assay: as above; conditions: source organism: Giardia lamblia ATCC 50803
HLA-A*03:01 = assay: as above
HLA-A*23:01 = assay: as above; conditions: source organism: Giardia lamblia ATCC 50803
HLA-A*24:03 = assay: as above; conditions: source organism: Giardia lamblia ATCC 50803
HLA-A*26:01 = assay: as above
HLA-A*29:02 = assay: as above; conditions: source organism: Giardia lamblia ATCC 50803
HLA-A*68:02 = assay: as above; conditions: source organism: Giardia lamblia ATCC 50803
HLA-B*15:01 = assay: as above
HLA-B*18:01 = assay: as above
HLA-B*27:03 = assay: as above; conditions: source organism: Giardia lamblia ATCC 50803
HLA-B*39:01 [1] = assay: as above; conditions: source organism: Giardia lamblia ATCC 50803
HLA-B*46:01 = assay: as above
HLA-A*01:01 [2] = assay: IEDB peptide-MHC binding, purified MHC/competitive/fluorescence; filed as Kd, often an IC50 or EC50 that approximates it; ≥ and ≤ were set here for values at or beyond the usual limits of such assays
HLA-A*11:01 [3] = assay: as above; conditions: source organism: Giardia lamblia ATCC 50803
HLA-A*30:01 = assay: as above
HLA-A*30:02 = assay: as above; conditions: source organism: Giardia lamblia ATCC 50803
HLA-A*66:01 = assay: as above; conditions: source organism: Giardia lamblia ATCC 50803
HLA-B*07:02 [4] = assay: as above; conditions: source organism: Giardia lamblia ATCC 50803
HLA-B*08:01 = assay: as above
HLA-B*14:02 = assay: as above; conditions: source organism: Giardia lamblia ATCC 50803
HLA-B*27:05 [5] = assay: as above; conditions: source organism: Giardia lamblia ATCC 50803
HLA-B*40:01 [6] = assay: as above; conditions: source organism: Giardia lamblia ATCC 50803
HLA-B*44:02 = assay: as above; conditions: source organism: Giardia lamblia ATCC 50803
HLA-B*51:01 [7] = assay: as above; conditions: source organism: Giardia lamblia ATCC 50803
HLA-B*53:01 = assay: as above; conditions: source organism: Giardia lamblia ATCC 50803
HLA-B*58:01 [8] = assay: as above; conditions: source organism: Giardia lamblia ATCC 50803
HLA-A*01:01 [9] = assay: IEDB peptide-MHC binding, purified MHC/direct/fluorescence; filed as Kd, often an IC50 or EC50 that approximates it; ≥ and ≤ were set here for values at or beyond the usual limits of such assays; conditions: source organism: Mycobacterium tuberculosis
HLA-A*11:01 [10] = assay: as above
HLA-A*31:01 = assay: as above
HLA-A*69:01 [11] = assay: as above; conditions: source organism: Mycobacterium tuberculosis
HLA-B*15:17 = assay: as above
HLA-B*27:05 [12] = assay: as above
HLA-B*38:01 = assay: as above
HLA-B*40:01 [13] = assay: as above
HLA-B*48:01 = assay: as above
HLA-B*51:01 [14] = assay: as above
HLA-B*57:01 = assay: as above
HLA-B*58:01 [15] = assay: as above
HLA-B*07:02 [16] = assay: as above; conditions: source organism: Burkholderia mallei
HLA-B*15:09 = assay: as above; conditions: source organism: Burkholderia mallei ATCC 23344
HLA-A*69:01 [17] = assay: IEDB peptide-MHC binding, purified MHC/competitive/fluorescence; filed as Kd, often an IC50 or EC50 that approximates it; ≥ and ≤ were set here for values at or beyond the usual limits of such assays; conditions: source organism: Burkholderia mallei ATCC 23344
HLA-B*39:01 [18] = assay: as above; conditions: source organism: Burkholderia mallei ATCC 23344
[19] = source organism: Giardia lamblia ATCC 50803
[20] = source organism: Mycobacterium tuberculosis
[21] = source organism: Mycobacterium tuberculosis str. Haarlem
[22] = source organism: Mycobacterium tuberculosis variant bovis BCG str. Pasteur 1173P2
[23] = source organism: Burkholderia mallei
[24] = source organism: Burkholderia mallei ATCC 23344

In the case of MTFPLHFRS, the Kd (HLA-A*02:01; [19]) is reported as no less than 20 µM, the Kd (HLA-A*02:03) is reported as no less than 20 µM and the Kd (HLA-A*02:12) is reported as no less than 20 µM. The Kd (HLA-A*02:19) was no less than 20 µM, the Kd (HLA-A*03:01; [19]) was no less than 20 µM and the Kd (HLA-A*23:01) was no less than 20 µM. For the same sequence, the Kd (HLA-A*24:03) was no less than 20 µM, the Kd (HLA-A*26:01; [19]) was no less than 20 µM and the Kd (HLA-A*29:02) was 0.028 µM. For the same sequence, the Kd (HLA-A*68:02) was no more than 0.001 µM, the Kd (HLA-B*15:01; [19]) was no less than 20 µM and the Kd (HLA-B*18:01; [19]) was no less than 20 µM. For the same sequence, the Kd (HLA-B*27:03) was no less than 20 µM, the Kd (HLA-B*39:01 [1]) was no less than 20 µM and the Kd (HLA-B*46:01; [19]) was no less than 20 µM. The Kd (HLA-A*01:01 [2]; [19]) was no less than 5 µM, the Kd (HLA-A*11:01 [3]) was 0.113 µM and the Kd (HLA-A*30:01; [19]) was no less than 5 µM. It also gave a Kd (HLA-A*30:02) of no less than 5 µM, a Kd (HLA-A*66:01) of no less than 5 µM and a Kd (HLA-B*07:02 [4]) of no less than 5 µM. The Kd (HLA-B*08:01; [19]) was no less than 5 µM, the Kd (HLA-B*14:02) was no less than 5 µM and the Kd (HLA-B*27:05 [5]) was no less than 5 µM. The Kd (HLA-B*40:01 [6]) was no less than 5 µM, the Kd (HLA-B*44:02) was no less than 5 µM and the Kd (HLA-B*51:01 [7]) was no less than 5 µM. For the same sequence, the Kd (HLA-B*53:01) was no less than 5 µM and the Kd (HLA-B*58:01 [8]) was no less than 5 µM.

With RPRLWRSVI the Kd (HLA-A*01:01 [9]) was no less than 20 µM, the Kd (HLA-A*02:01; [20]) was no less than 20 µM and the Kd (HLA-A*03:01; [20]) was no less than 20 µM. It also gave a Kd (HLA-A*11:01 [10]; [20]) of no less than 20 µM, a Kd (HLA-A*26:01; [21]) of no less than 20 µM and a Kd (HLA-A*31:01; [20]) of no less than 20 µM. The Kd (HLA-A*69:01 [11]) was no less than 20 µM, the Kd (HLA-B*15:01; [20]) was no less than 20 µM and the Kd (HLA-B*15:17; [20]) was 2.58 µM. It also gave a Kd (HLA-B*18:01; [20]) of no less than 20 µM, a Kd (HLA-B*27:05 [12]; [20]) of no less than 20 µM and a Kd (HLA-B*38:01; [21]) of no less than 20 µM. The Kd (HLA-B*40:01 [13]; [20]) was no less than 20 µM, the Kd (HLA-B*46:01; [20]) was no less than 20 µM and the Kd (HLA-B*48:01; [20]) was no less than 20 µM. The Kd (HLA-B*51:01 [14]; [20]) was 0.964 µM, the Kd (HLA-B*57:01; [20]) was no less than 20 µM and the Kd (HLA-B*58:01 [15]; [20]) was no less than 20 µM. The Kd (HLA-A*30:01; [22]) was no less than 20 µM and the Kd (HLA-B*08:01; [22]) was 0.324 µM.

Sequence EPFSRRHPL has a Kd (HLA-A*02:01; [23]) of no less than 20 µM, a Kd (HLA-A*03:01; [23]) of no less than 20 µM and a Kd (HLA-A*11:01 [10]; [23]) of no less than 20 µM. For the same sequence, the Kd (HLA-A*26:01; [24]) was no less than 20 µM, the Kd (HLA-A*31:01; [23]) was no less than 20 µM and the Kd (HLA-B*07:02 [16]) was 0.01 µM. It also gave a Kd (HLA-B*15:01; [23]) of no less than 20 µM, a Kd (HLA-B*15:09) of no less than 20 µM and a Kd (HLA-B*15:17; [23]) of 0.367 µM. The Kd (HLA-B*18:01; [23]) was no less than 20 µM, the Kd (HLA-B*27:05 [12]; [23]) was no less than 20 µM and the Kd (HLA-B*38:01; [24]) was no less than 20 µM. The Kd (HLA-B*40:01 [13]; [23]) was no less than 20 µM, the Kd (HLA-B*46:01; [23]) was no less than 20 µM and the Kd (HLA-B*48:01; [23]) was no less than 20 µM. For the same sequence, the Kd (HLA-B*51:01 [14]; [23]) was no less than 20 µM, the Kd (HLA-B*57:01; [23]) was no less than 20 µM and the Kd (HLA-B*58:01 [15]; [23]) was no less than 20 µM. The Kd (HLA-A*01:01 [2]; [24]) was 3.27 µM, the Kd (HLA-A*69:01 [17]) was 0.209 µM and the Kd (HLA-B*08:01; [24]) was 0.0583 µM. It also gave a Kd (HLA-B*39:01 [18]) of 0.443 µM.

Reference: the Immune Epitope Database (IEDB)
